Data published in patent publication US20250101071A1 (PAUL EHRLICH INSTITUT BUNDESINSTITUT F R IMPFSTOFFE UND …, published 2025).

T1: human CD32b expressed on cells (human, UniProt P31994 43-310)
T1 construct: also called SupT1-CD32b; CHO-CD32b
T1 sequence: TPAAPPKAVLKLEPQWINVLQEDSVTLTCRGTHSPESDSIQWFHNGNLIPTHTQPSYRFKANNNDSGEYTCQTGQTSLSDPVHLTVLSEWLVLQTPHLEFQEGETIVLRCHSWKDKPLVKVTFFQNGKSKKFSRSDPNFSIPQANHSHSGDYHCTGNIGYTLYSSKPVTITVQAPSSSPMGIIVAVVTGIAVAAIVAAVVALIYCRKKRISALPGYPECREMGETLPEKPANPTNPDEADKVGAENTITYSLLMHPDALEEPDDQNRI

T2: recombinant human CD32b protein, biotinylated (human, UniProt P31994 43-217)
T2 construct: also called CD32b-His; recombinant CD32b protein
T2 sequence: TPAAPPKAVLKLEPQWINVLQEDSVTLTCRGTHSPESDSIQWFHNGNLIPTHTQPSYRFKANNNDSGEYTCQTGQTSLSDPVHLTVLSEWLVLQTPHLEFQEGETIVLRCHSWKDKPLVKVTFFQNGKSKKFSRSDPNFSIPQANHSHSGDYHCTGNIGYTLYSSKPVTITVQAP


Legend:
[1] = biological target: T1, human CD32b expressed on cells; assay: flow cytometry, crude E. coli extract on SupT1-CD32b cells
[2] = biological target: T2, recombinant human CD32b protein, …; assay: SPR, Biacore T200, biotinylated CD32b on neutravidin chip
neutravidin = biological target: T3, neutravidin (UniProt P02701 25-152); assay: SPR, Biacore T200, neutravidin NA chip
T3 construct: also called neutravidin NA chip (Cytiva)
T3 sequence (P02701 25-152): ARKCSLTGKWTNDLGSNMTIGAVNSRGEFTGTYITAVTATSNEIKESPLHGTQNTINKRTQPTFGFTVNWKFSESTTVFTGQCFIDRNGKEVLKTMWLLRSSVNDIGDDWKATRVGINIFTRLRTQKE

Row | Binder | binding result [1] | binding result [2] | binding result (neutravidin)
1 | DARPin 53.D11 (designed binder) DLGKKLLEAARAGQDDEVRILMANGADVNATDITGATPLHLAAMWGHLEIVEVLLKYGADVNAQDYEGYTTLHLAAMWGHLEIVEVLLKYGADVNAHDVAGHTPLHLATHFGHLEIVEVLLKHGADVNAQDKFGKTPFDLAIDNGNEDIAEVLQKAA | no binding (tested: 5-25 µl of crude DARPin extracts) |  | 
2 | DARPin 53.2.C8 (designed binder) DLGKKLLEAARAGQDDAVRILMANGADANAYDHMGETPLHLAAMEGHLEIVEVLLKHGADVNADDWDGQTPLHLAAHWGHLEIVEVLLKYGADVKEQDVVGYTPLHLAAWIGHLEIVEVLLKNGADVNAQDKFGKTPFDLAIDNGNEDIAEVLQKAA | no binding (tested: 5-25 µl of crude DARPin extracts) |  | 
3 | DARPin 53.C1 (designed binder) DLGKKLLEAARVGQDDEVRILMANGADVNATDNEGQTPLHLAAMWGHLEIVEVQLKHGADVNASDTFGSTPLHLAARFGHLEIVEVLLKYGADVNAADTEGFTPLHLAAIDGHLEIVEVLLKHGADVNAQDKFGKTPFDLAIDNGNEDIAEVLQKAA | no binding (tested: 5-25 µl of crude DARPin extracts) |  | 
4 | DARPin 53.A10 (designed binder) DLGKKLLEAARAGQDDEVRILMSNGADVNAWDKEGVTPLHLAAVHGHLEIVEVLLKHGADVNAQDDVGMTPLHLAAHWGHLEIVEVLLKYGADVNAQDYAGMTPLHLAAFQGHLEIVEVLLKHGADVNAQDKFGKTPFDLAIDNGNEDIAQVLQKAA | no binding (tested: 5-25 µl of crude DARPin extracts) |  | 
5 | DARPin 53.G1 (designed binder) DLGKKLLEATRAGQDDEVRILMSNGADVNAWDKEGVTPLHLAAVHGHLEIVEVLLKHGADVNAQDDVGMTPLHLAAHWGHLEIVEVLLKYGADVNAQDYAGMTPLHLAAFQGHLEIVEVLLKHGADVNAQDKFGKTPFDLAIDNGNEDIAEVLQKAA | no binding (tested: 5-25 µl of crude DARPin extracts) |  | 
6 | DARPin 53.A11 (designed binder, also called 53.C9; 53.F7) DLGKKLLEATRAGQDDEVRILMANGADVNATDEEGLTPLHLAALIGHLEIVEVLLKYGADVNAADMDGTTPLHLAAQEGHLEIVEVLLKYGADVNADDFWGHTPLHLAAWFGHLEIVEVLLKHGADVNAQDKFGKTPFDLAIDNGNEDIAEVLQKAA | no binding (tested: 5-25 µl of crude DARPin extracts) |  | 
7 | DARPin 53.2.B6 (designed binder) DLGKKLLEATRAGQDDEVRILMANGADVNATDEEGLTPLHLAALIGHLEIVEVLLKYGADVNAADMDGTTPLHLAAQEGHQEIVEVLLKYGADVNADDFWGHTPLHLAAWFGHLEIVEVLLKHGADVNAQDKFGKIPFDLAIDNGNEDIAEVLQKAA | no binding (tested: 5-25 µl of crude DARPin extracts) |  | 
8 | DARPin 53.2.H4 (designed binder) DLGKKLLEATRAGQDDEVRILMANGADVNTTDEEGLTPLHLAALIGHLEIVEVLLKYGADVNAADMDGTTPLHLAAQEGHLEIVEVLLKYGADVNADDFWGHTPLHLAAWFGHLEIVDVLLANVADVNANSAQSKTPFDLAIDNGNEDIAEVLQKAA | no binding (tested: 5-25 µl of crude DARPin extracts) |  | 
9 | DARPin 53.2.D6 (designed binder) DLGKKLLDAASAGQDDEVRILMANGADVNATDEEGLTPLHLAALIGHLEIVEVLLKYGADVNAADMDGTTPLHLAAQEGHLEIVEVLLKYGADVNADDFWGHTPLHLAAWFGHLEIVEVLLKHGADVNAQDKFGKTPFDLAIDNGNEDIAEVLQKAA | no binding (tested: 5-25 µl of crude DARPin extracts) |  | 
10 | DARPin 53.H9 (designed binder) DLGKKLLEATRAGQDDEVRILMANGADVNATDEEGLTPLHLAALIGHLEIVEVLLKYGADVNAVDMDGTTPLHLAAQEGHLEIVEVLLKYGADVNADDFWGHTPLHLAAWFGHLEIVEVLLKHGADVNAQDKFGKTPFDLAIDNGNEDIAQVLQKAA | no binding (tested: 5-25 µl of crude DARPin extracts) |  | 
11 | DARPin 53.B10 (designed binder) DLGKKLLEATRAGQDDEVRILMANGADVNATDEEGLTPLHLAALIGHLEIVEVLLKYGADVNAADMDGTTPLHLAAQEGHLEIVEVLLKYGADVNADDFWGHTPLHLAAWFGHLEIVEVLLKNGADVNAQDKFGKTPFDLAIDNGNEDIAEVLQKAA | no binding (tested: 5-25 µl of crude DARPin extracts) |  | 
12 | DARPin 53.G7 (designed binder) DLGKKLLEATRAGQDDEVRILMANGADVNATDEEGLTPLHLAVLIGHLEIVDVLLKYGADVNAADMDGTTPLHLAAQEGHLEIVEVLLKYGADVNADDFWGHTPLHLAAWFGHLEIVEVLLKHGADVNAQDKFGKTPFDLAIDNGNEDIAEVLQKAA | no binding (tested: 5-25 µl of crude DARPin extracts) |  | 
13 | DARPin 53.2.H9 (designed binder) DLGKKLLEATRAGQDDEVRILMANGADVNATDEEGLTPLHLAALIGHLEIVEVLLKYGADVNAADMDGTTPLHLAVQEGHLEIVEVLLKYGADVNADDFWGHTPLHLAAWFGHLEIVEVLLKYGADVNAQDKFGKTPFDLAIDNGNEDIAEALQKAA | no binding (tested: 5-25 µl of crude DARPin extracts) |  | 
14 | DARPin 53.2.E10 (designed binder) DLGKKLLEATRAGQDDEVRILMANGADVNTTDEEGLTPLHLAALIGHLEIVEVLLKYGADVNAADMDGTTPLHLAAQEGHLEIVEVLLKYGADVNADDFWGHTPLHLAAWFGHLEIVEVLLKHGADVNAQDKFGKTPFDLAIDNGNEDIAEVLQKAA | no binding (tested: 5-25 µl of crude DARPin extracts) |  | 
15 | DARPin 53.B8 (designed binder) DLGKKLLEATRAGQDDEVRILMTNGTDVNATDEEGLTPLHLAALIGHPEIVEVLLKYGADVNAADMDGTTPLHLAAQEGHLEIVEVLLKYCADVNADDFWGHTPLHLAAWFGHLEIVEVLLKYGADVNAQDKFGKTPFDLAIDNGNEDIAEVLQKAA | no binding (tested: 5-25 µl of crude DARPin extracts) |  | 
16 | DARPin 53.2.H5 (designed binder) DLGKKLLEATRAGQDDEVRILMANGADVNATDEEGLTPLHLAALIGHLEIVEVLLKYDADVNAADMDGTTPLHLAAQEGHLEIVEVLLKYGADVNADDFWGHTPLHLAPWFGHLEIVEVLLNHGADVNAQDKFGKTPFDLAIDNGNEDLAEVLQKAA | no binding (tested: 5-25 µl of crude DARPin extracts) |  | 
17 | DARPin 53.D7 (designed binder) DLGKKLLEAARAGQDDEVRILMANGADVNATDEEGLTPLHLAALIGHLEIVEVLLKYGADVNAADMDGTTPLHLAAQEGHLEIVEVLLKYGADVNADDFWGHTPLHLAAWFGHLEIVEVLLKNGADVNAQDKFGKTPFDLAIDNGNEDIAEVLQKAA | no binding (tested: 5-25 µl of crude DARPin extracts) |  | 
18 | DARPin 53.E11 (designed binder) DLGKKLLEAARAGQDDEVRILMANGADVNATDEEGLTPLHLAALIGHLEIVEVLLKYGTDVNAADMDGTTPLHLAAQEGHLEIVEVLLKYGADVNADDFWGHTPLHLAAWFGHLEIVEVLLKHGADVNAQDKFGKTPFDLAIDNGNEDIAEVLQKAA | no binding (tested: 5-25 µl of crude DARPin extracts) |  | 
19 | DARPin 53.A8 (designed binder) DLGKKLLEATRAGQDDEVRILMANGANVNATDEEGLTPLHLAALDGHLEIVEVLLKYGADVNADDMHGPTPLHLAAYAGHLEIVEVLLKYGADVNAYDCGGHTPLHLAARLGHLEIVEVLLKYGADVNAQDKFGKTPFDLAIDNGNEDIAEVLQKAA | no binding (tested: 5-25 µl of crude DARPin extracts) | no binding | no binding
